Results published in paper PMC5376981 (Scientific Reports, 2014).

What was measured:
[1] = target: native VAR2CSA on FCR3-CSA infected erythrocytes (Plasmodium falciparum FCR3, UniProt Q6UDW7, strain); experiment: flow cytometry on cells
[2] = target: full-length VAR2CSA recombinant protein (3D7-DBL1X-6ε) (Plasmodium falciparum 3D7, UniProt Q8I639, strain); experiment: SPR
[3] = target: native VAR2CSA on NF54-CSA infected erythrocytes (Plasmodium falciparum NF54 (parent of …, UniProt Q8I639, strain)); experiment: flow cytometry on cells
[4] = target: 3D7-DBL1X (Plasmodium falciparum 3D7, UniProt Q8I639, strain); experiment: ELISA
[5] = target: 3D7-DBL1X-3X (Plasmodium falciparum 3D7, UniProt Q8I639, strain); experiment: ELISA
[6] = target: FCR3-DBL3X (Plasmodium falciparum FCR3, UniProt Q6UDW7, strain); experiment: ELISA
[7] = target: 3D7-DBL2X (Plasmodium falciparum 3D7, UniProt Q8I639, strain); experiment: ELISA
[8] = target: FCR3-DBL6ε (Plasmodium falciparum FCR3, UniProt Q6UDW7, strain); experiment: ELISA

Binder	binding result [1]	Kd [2]	koff [2]	kon [2]	binding result [3]	binding result [4]	binding result [5]	binding result [6]	binding result [7]	binding result [8]
VHH895 (VHH) VHH: QVQLQESGGGLVQAGGSLRVSCAASGRALSDYAMGWFRQTPGKEREFVAAISWNGGNTYYADSVKGRFTISRDNAENTVYLQMNSLKPEDTAVYYCAANDLAVPGLLMPRVETYDYWGQGTQVTVSS	binds	800 nM	87.2 s⁻¹	1.1e+08 M⁻¹ s⁻¹						
VHH905 (VHH) VHH: QVQLQESGGGLVQAGGSLRLSCAASGRTFSSYAMGWFRQAPGKEREFVAAISWNGGSTYYADSVKGRFTISRDNAENTGYLQMNSLKPEDTAVYYCAANDLMVPELLMPRVETYDYWGQGTQVTVSS	binds				binds	binds	binds			
VHH874 (VHH) VHH: QVQLQESGGGLVQAGGSLRLSCAASGRAFSDYAMGWFRQAPGKERDFVAAISWNGGNTYYSDSVKGRFTISRDNAKNTVYLQMNSLKPEDTAVYYCAANDLAVPELLMPRVETYDYWGQGTQVTVSS	binds				binds	binds	binds	no binding (tested: 0.3 µg/ml)	no binding (tested: 0.3 µg/ml)	
VHH884 (VHH) VHH: QVQLQESGGGLVQAGGSLRLSCAASGRTFSNYAMGWFRQAPGKEREFVAAISWNGGSTYYADSAKGRFTISRDNAENTVYLQMNSLKPEDTAVYRCAANDLMVPELLMPRVETYDYWGQGTQVTVSS	binds	400 nM	0.0036 s⁻¹	9860 M⁻¹ s⁻¹				no binding (tested: 0.3 µg/ml)	no binding (tested: 0.3 µg/ml)	
VHH897 (VHH) VHH: QVQLQESGGGLVQAGGSLRISCAASGRTFSDYAMGWFRQAPGKEREFVAAISWNGDNTYYADSVKGRFTISRDNAKNTVYLQMNSLKPEDTAVYYCAANDLAVPGLLMPRVETYDYWGQGTQVTVSS	binds	43 nM	0.0013 s⁻¹	31000 M⁻¹ s⁻¹						
VHH860 (VHH) VHH: QVQLQESGGGLVQAGGSLRLSCAASGRAFSDYAMGWFRQAPGKERDFVAAISWNGGNTYYSDSVKGRFTISRDNAENTVYLQMNSLKPEDTAVYYCAANDLAVPELLMPRVETYDYWGQGTQVTVSS	binds	28 nM	0.0013 s⁻¹	46000 M⁻¹ s⁻¹				no binding (tested: 0.3 µg/ml)	no binding (tested: 0.3 µg/ml)	
VHH863 (VHH) VHH: QVQLQESGGGLVQTGGSLRLSCAASGRTFMDYVMGWFRQAPGKEREFVASISWTDSTRYTDSVKGRFTASRDDAEATVYLQMNNLQFEDTAVYYCARGAGRGHSVSAGDYVYWGQGTQVTVSS	no binding (tested: 100 µg/ml)	46 nM	0.0014 s⁻¹	31000 M⁻¹ s⁻¹						no binding (tested: 0.3 µg/ml)
VHH864 (VHH) VHH: QVQLQESGGGLVQTGGSLRLSCAASGRTFMDYVMGWFRQAPGKEREFVASISWTDSTRYTDSVKGRFTASRDDAKATVYLQMNNLQFEDTAVYYCARGAGRGHSVSAGDYVYWGQGTQVTVSS	no binding (tested: 100 µg/ml)	18 nM	0.00063 s⁻¹	34000 M⁻¹ s⁻¹						no binding (tested: 0.3 µg/ml)
VHH867 (VHH) VHH: QVQLQESGGGLVQAGGSLRLSCAASGFTLDDYGIGWFRQAPGKEREGVSFISSSDGTTDYADSVKGRFTISSDNAKNTVYLQMNSLKPEDTAVYYCAAVEQRVPFLSVLHEAIYDYWGQGTQVTVSS	binds	300 nM	0.0027 s⁻¹	8690 M⁻¹ s⁻¹				no binding (tested: 0.3 µg/ml)	no binding (tested: 0.3 µg/ml)	
VHH859 (VHH) VHH: QVQLQESGGGLVQAGGSLRLSCAASGRTFSSYAMGWFRQAPGKEREFVAAISWNGSSTYYADSVKGRFTISRDNAKNTVYLQMNSLKPEDTAVYYCAANDLLVPELLMSRVEVYDYWGQGTQVTVSS	binds	300 nM	0.0032 s⁻¹	12000 M⁻¹ s⁻¹				no binding (tested: 0.3 µg/ml)	no binding (tested: 0.3 µg/ml)	
VHH880 (VHH) VHH: QVQLQESGGGLVQAGGSLRLSCAASGRTFSDYAMGWFRQAPGKDREFVAAISWSGDRTYYADSVKGRFTISRDNAENTVYLQMNSLKPEDTAVYHCAANDLMVPELLMPRVESYDYWGQGTQVTVSS	binds	100 nM	0.0018 s⁻¹	15000 M⁻¹ s⁻¹				no binding (tested: 0.3 µg/ml)	no binding (tested: 0.3 µg/ml)	
VHH883 (VHH) VHH: QVQLQESGGGLVQAGGSLRLSCAASGRTFSSYAMGWFRQAPGKEREFVAAISWSGDTTYYADSVKGRFTISRDNAKNTVSLQMNSLKPEDTAVYYCAANDLMVPALLMPRLESYDYWGQGTQVTVSS	binds	10 nM	0.0017 s⁻¹	170000 M⁻¹ s⁻¹				no binding (tested: 0.3 µg/ml)	no binding (tested: 0.3 µg/ml)	
VHH879 (VHH) VHH: QVQLQESGGGLVQAGGSLRLSCAASGRTFSDYAMGWFRQAPGKDREFVAAISWSGDRTYYADSVKGRFTISRDNAKNTVYLQMNSLKPEDTAVYHCAANDLMVPELLMPRVESYDYWGQGTQVTVSS	binds	19 nM	0.0015 s⁻¹	79000 M⁻¹ s⁻¹				no binding (tested: 0.3 µg/ml)	no binding (tested: 0.3 µg/ml)	
VHH889 (VHH) VHH: QVQLQESGGGLVQAGGSLRLSCAASGRSFSSYAMGWFRQAPGKEREFVATITWSGGSTYYADSVKGRFTISGDSAENTVYLQMNSLKPEDTAVYYCAADETSAPLYRAYEAQYDYWGQGTQVTVSS	binds	700 nM	0.035 s⁻¹	54000 M⁻¹ s⁻¹				no binding (tested: 0.3 µg/ml)	no binding (tested: 0.3 µg/ml)	
VHH893 (VHH) VHH: QVQLQESGGGLVQAGGSLRLSCAASGFTFDDYAIGWFRQAPGKEREGVSCISSGDGGTYYADSVKGRFTISSDNAENTVALQMNSLKPEDTAVYYCAAVYGSCWDGLLYRTDSYEYDGWGQGTQVTVSS	no binding (tested: 100 µg/ml)	27 nM	0.0017 s⁻¹	60000 M⁻¹ s⁻¹						
VHH871 (VHH) VHH: QVQLQESGGGLVQAGGSLRLSCAASGSIFSIHAMGWYRQAPGKQRELVAAITSGGSTNYGDSVKGRFTISEDNAKNTVYLQMNGLKPEDTAVYYCAADNDGLGYVYWGQGTQVTVSS	binds	200 nM	3.9e-05 s⁻¹	216 M⁻¹ s⁻¹				no binding (tested: 0.3 µg/ml)	no binding (tested: 0.3 µg/ml)	
VHH891 (VHH) VHH: QVQLQESGGGLVQTGDSLRLSCAASGRTFSSYAMGWFRQAPGKEREFVAAITWGDGSADYADSVKGRFTISRDNAENTVYLQMNSLKPEDTAVYYCAAETVGAPIYTLGYSEAYDYWGQGTQVTVSS	binds	700 nM	0.0014 s⁻¹	2050 M⁻¹ s⁻¹				no binding (tested: 0.3 µg/ml)	no binding (tested: 0.3 µg/ml)	
